This note sets out measurements from PMC2132560 (The Journal of Cell Biology, 1997).

To fix the notation:
B1: GST-transportin1 fusion protein (natural protein)
chain: MEYEWKPDEQGLQQILQLLKESQSPDTTIQRTVQQKLEQLNQYPDFNNYLIFVLTKLKSEDEPTRSLSGLILKNNVKAHFQNFPNGVTDFIKSECLNNIGDSSPLIRATVGILITTIASKGELQNWPDLLPKLCSLLDSEDYNTCEGAFGALQKICEDSAEILDSDVLDRPLNIMIPKFLQFFKHSSPKIRSHAVACVNQFIISRTQALMLHIDSFIENLFALAGDEEPEVRKNVCRALVMLLEVRMDRLLPHMHNIVEYMLQRTQDQDENVALEACEFWLTLAEQPICKDVLVRHLPKLIPVLVNGMKYSDIDIILLKGDVEEDETIPDSEQDIRPRFHRSRTVAQQHDEDGIEEEDDDDDEIDDDDTISDWNLRKCSAAALDVLANVYRDELLPHILPLLKELLFHHEWVVKESGILVLGAIAEGCMQGMIPYLPELIPHLIQCLSDKKALVRSITCWTLSRYAHWVVSQPPDTYLKPLMTELLKRILDSNKRVQEAACSAFATLEEEACTELVPYLAYILDTLVFAFSKYQHKNLLILYDAIGTLADSVGHHLNKPEYIQMLMPPLIQKWNMLKDEDKDLFPLLECLSSVATALQSGFLPYCEPVYQRCVNLVQKTLAQAMLNNAQPDQYEAPDKDFMIVALDLLSGLAEGLGGNIEQLVARSNILTLMYQCMQDKMPEVRQSSFALLGDLTKACFQHVKPCIADFMPILGTNLNPEFISVCNNATWAIGEISIQMGIEMQPYIPMVLHQLVEIINRPNTPKTLLENTAITIGRLGYVCPQEVAPMLQQFIRPWCTSLRNIRDNEEKDSAFRGICTMISVNPSGVIQDFIFFCDAVASWINPKDDLRDMFCKILHGFKNQVGDENWRRFSDQFPLPLKERLAAFYGV

One experiment deals with RanGTP (UniProt P62826 1-216). Description: native gel or EMSA. (In general: In EMSA bound probe runs differently from free probe, usually more slowly.)
The target in experiment [1] is B1. Description: native gel or EMSA.

Take B1: the binding result in the experiment with RanGTP is listed as “binds”.

B2: recombinant hnRNP A1 protein (natural protein, human, UniProt P09651-2 1-320, looked up)
chain: MSKSESPKEPEQLRKLFIGGLSFETTDESLRSHFEQWGTLTDCVVMRDPNTKRSRGFGFVTYATVEEVDAAMNARPHKVDGRVVEPKRAVSREDSQRPGAHLTVKKIFVGGIKEDTEEHHLRDYFEQYGKIEVIEIMTDRGSGKKRGFAFVTFDDHDSVDKIVIQKYHTVNGHNCEVRKALSKQEMASASSSQRGRSGSGNFGGGRGGGFGGNDNFGRGGNFSGRGGFGGSRGGGGYGGSGDGYNGFGNDGSNFGGGGSYNDFGNYNNQSSNFGPMKGGNFGGRSSGPYGGGGQYFAKPRNQGGYGGSSSSSSYGSGRRF
In the case of B2, in experiment [1], the binding result was “binds”.
